Reference: US20120107320A1 (UNIVERSITY COURT OF THE UNIVERSITY OF ABERDEEN, published 2012)

Target: T1, human soluble CTLA-4 (sCTLA-4), natural soluble form (human, UniProt P16410-5 36-174, limits assumed)
T1 construct: also called natural soluble CTLA-4; soluble form of cytotoxic T-lymphocyte antigen 4
T1 sequence (looked up): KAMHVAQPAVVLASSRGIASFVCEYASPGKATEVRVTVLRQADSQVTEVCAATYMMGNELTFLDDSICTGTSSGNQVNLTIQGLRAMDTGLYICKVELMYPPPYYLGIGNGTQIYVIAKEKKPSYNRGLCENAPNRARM
Assay: sandwich ELISA, capture with pan-specific mAb BNI3, detection with biotinylated JMW-3B3
Excerpt: FIG. 7. Anti-sCTLA-4 JMW-3B3 distinguishes, in sera and culture supernatant, true natural soluble CTLA-4 from extracellular membrane-bound CTLA-4 (mCTLA-4). The extracellular portion of mCTLA-4 is encoded by exon 2 and is identical in sCTLA-4, mCTLA-4 and the recombinant soluble form of CTLA-4, CTLA4-Ig. […] Pan-specific anti-CTLA-4 mAb (clone BNI3) was used as the capture antibody.

binding result: binds
B1: monoclonal anti-sCTLA-4 antibody JMW-3B3 (antibody, mouse IgG1, V domains shown)
VH: EVKLVNSGGGLVQPGNSLRLSCATSGFTFTDFYMSWVRQPPGKALEWLGFVRNRANGYTTEYSVSVKGRFIISRDNFQSTLFLQMNTLRAEDSGTYYCVRGPGDTADYTMDYWGQGTSVTVSS
VL: QAVVTQESAFTTSPGGTVILTCRSSTGAVTTNNYANWVQEKPDHLFTGLIGGTSNRAPGVPVRFSGSLIGDKAALTITGAQTEDDGMYFCALWYTTHFVFGGGTKVT
notes: It was biotinylated for detection in the sandwich ELISAs; also called mAb JMW-3B3; anti-sCTLA-4 mAb
